Test results taken from patent US20210147552A1 (UNIVERSITETET I OSLO, published 2021).

B1: 12mer DQ2.5-glia-α2 peptide (free) (peptide)
peptide: PQPELPYPQPQL
notes: also called free peptide
B2: 220 hIgG1 (antibody, V domains shown)
VH: QVQLVESGAEVKKPGSSVKVSCKASGGTFSSYAISWVRQAPGQGLEWMGGIIPIFGTANYAQKFQGRATITADESTSTAYMELSSLRSEDTAVYYCARGRNTYCSGGSCYSPHFDYWGQGTLVTVSS
VL: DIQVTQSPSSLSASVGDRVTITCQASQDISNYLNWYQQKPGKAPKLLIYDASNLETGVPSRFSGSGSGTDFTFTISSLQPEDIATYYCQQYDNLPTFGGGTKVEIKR
notes: full-length human IgG1/kappa
B3: 228 hIgG1 (antibody, V domains shown)
VH: QVQLVQSGAEVKKPGSSVKVSCKASGGTFSSYAISWVRQAPGQGLEWMGGIIPIFGTANYAQKFQGRVTITADESTSTAYMELSSLRSEDTAVYYCARGQVLIWTYYYGMDVWGQGTTVTVSS
VL: DIRLTQSPSSLSASVGDRVTITCQASQDISNYLNWYQQKPGKAPKLLIYDASNLETGVPSRFSGSGSGTDFTFIISSLQPEDIATYYCQQYDNLPLTFGGGTKLEIKR
notes: full-length human IgG1/kappa
B4: 12mer DQ2.5-glia-α1a peptide (free) (peptide)
peptide: QLQPFPQPELPY
notes: also called free peptide
B5: 206 hIgG1 (antibody, V domains shown)
VH: QVQLVQSGAEVKKPGSSVKVSCKASGGTFSSYAISWVRQAPGQGLEWMGGIIPIFGTANYAQKFQGRVTITADESTSTAYMELSSLRSEDTAVYYCARDVQRMGMDVWGQGTTVTVSS
VL: DIQMTQSPSSVSTSVGDRVTITCRASQDISNWLAWYQQKPGKAPKLLIYDSSTLQSGVPSRFSGSGSGTDFTLTISTLQPEDFATYYCQQFNSYPLTFGGGTKVDIKR
notes: full-length human IgG1/kappa
B6: 33mer α-gliadin peptide (peptide)
peptide: LQLQPFPQPELPYPQPELPYPQPELPYPQPQPF
B7: R2A1-8E hIgG1 (antibody, V domains shown)
VH: QVQLQQSGPGLVKPSQTLSLTCAISGDSVSSNSAAWNWIRQSPSRGLEWLGRTYYRSKWYNDYAVSVKSRITINPDTSKNQFSLQLNSVTPEDTAVYYCARDSSSGWHPYGMDVWGQGTTVTVSS
VL: DIQVTQSPSFLSASVGDRVTITCRASHDISSYLAWYQHKPGKAPKLLIHAASILQSGVPSRFSGSGSGTEFTLTISSLQPEDFATYYCQQLNSYPLLTFGGGTKVDIKR
notes: full-length human IgG1/kappa made in HEK293E; heavy chain constant region with N297G; also called mAb R2A1-8E
B8: R3A2-9F hIgG1 (antibody)
heavy: not shown
light: DIQVTQSPSFLSASVGDRVTITCRASHDISSYLAWYQHKPGKAPKLLIHAASILQSGVPSRFSGSGSGTEFTLTISSLQPEDFATYYCQDLNSYPLFGQGTRLEIKRTVAAPSVFIFPPSDEQLKSGTASVVCLLNNFYPREAKVQWKVDNALQSGNSQESVTEQDSKDSTYSLSSTLTLSKADYEKHKVYACEVTHQGLSSPVTKSFNRGEC
notes: also called mAb R3A2-9F
B9: R4A1-3A (107) hIgG1 (antibody, V domains shown)
VH: B7 VH
VL: DIQVTQSPSFLSASVGDRVTITCRASHDISSYLAWYQHKPWKAPKLLIHAASILQSGVPSRFSGSGSGTEFTLTISSLQPEDFATYYCQDLNSYPLFGQGTRLEIKR
notes: full-length human IgG1/kappa made in HEK293E; heavy chain constant region with N297G; also called mAb R4A1-3A

Experiments:
[1] = target: B8; assay: competition ELISA: 0.1 µg/ml hIgG1 pre-incubated with the competitor, then binding to plate-bound HLA-DQ2.5:DQ2.5-glia-α1a
Protocol: (§1) FIG. 2. […] (C) Eight different HLA-DQ2.5:gluten peptide complexes and HLA-DQ2.5:CLIP2 were used in ELISA for specificity analysis (n=2). mAb 2.12.E11 was included to control pMHC capture levels.
(§2) 96-well MaxiSorp microtiter plates (Nunc) were coated overnight at 4° C. with NeutrAvidin (Avidity, 10 ug/ml in PBS), before blocking with 4% skim milk powder in PBS (w/v). Biotinylated pMHC was captured onto the NeutrAvidin. […] 0.2 μg/ml mAb 2.12.E11 [Viken, H. D., et al., 1995] was detected using polyclonal anti-mouse IgG Fc-ALP (Sigma, 1:2000). […] Assays were performed at RT with duplicate wells, except for single clone screenings with only one well per sample.

[2] = target: B9; assay: as above
Protocol: as §1, §2

[3] = target: B7; assay: as above
Protocol: as §1, §2

[4] = target: T1, BSA (Bos taurus, UniProt P02769); assay: ELISA, hIgG1, control well with BSA
T1 construct: not specified; also called bovine serum albumin
T1 sequence (P02769 25-607 limits assumed): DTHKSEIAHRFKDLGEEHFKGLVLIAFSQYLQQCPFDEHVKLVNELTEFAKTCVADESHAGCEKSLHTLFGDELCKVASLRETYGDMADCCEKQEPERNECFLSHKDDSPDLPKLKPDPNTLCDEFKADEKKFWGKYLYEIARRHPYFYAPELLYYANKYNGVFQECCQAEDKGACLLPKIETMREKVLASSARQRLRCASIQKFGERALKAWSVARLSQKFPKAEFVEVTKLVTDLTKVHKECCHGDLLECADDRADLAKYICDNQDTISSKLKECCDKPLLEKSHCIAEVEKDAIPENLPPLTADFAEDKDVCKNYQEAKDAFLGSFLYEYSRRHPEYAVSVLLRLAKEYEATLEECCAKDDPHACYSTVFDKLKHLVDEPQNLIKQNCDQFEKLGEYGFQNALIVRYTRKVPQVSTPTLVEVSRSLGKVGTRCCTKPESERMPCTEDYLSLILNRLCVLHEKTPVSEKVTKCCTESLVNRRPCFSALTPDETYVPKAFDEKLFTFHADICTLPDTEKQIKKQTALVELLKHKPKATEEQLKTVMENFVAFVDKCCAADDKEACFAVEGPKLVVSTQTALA
Protocol: FIG. 14. […] The peptides are annotated according to Sollid, L. M., et al., (Immunogenetics, 2012, 64(6): 455-460) (A). […] Error bars illustrate mean±SD of duplicates. […] HSA=human serum albumin; BSA=bovine serum albumin.
Assays were performed at RT with duplicate wells. Between each layer, the plates were washed 3× with PBST.

[5] = target: B8; assay: competition ELISA: 0.1 µg/ml hIgG1 pre-incubated with 33mer α-gliadin, then binding to plate-bound HLA-DQ2.5:DQ2.5-glia-α1a
Protocol: as §1, §2

[6] = target: B9; assay: as above
Protocol: as §1, §2

[7] = target: B7; assay: as above
Protocol: as §1, §2

[8] = target: B1; assay: competition ELISA, hIgG1 pre-incubated with competitor
Protocol: as §1, §2

[9] = target: B4; assay: as above
Protocol: as §1, §2

[10] = target: B6; assay: as above
Protocol: as §1, §2

[11] = target: T1, BSA; assay: ELISA, hIgG1 (printed anti-glia1a_no106), control well with BSA

Row | Binder | binding result [4] | binding result [8] | binding result [9] | binding result [10] | also measured
1 | B1 |  |  |  |  | binding result [1]: no binding (tested: 1 µM); binding result [2]: no binding (tested: 1 µM); binding result [3]: no binding (tested: 1 µM)
2 | B2 | no binding (tested: 0.5 µg/ml) |  |  |  | 
3 | B3 | no binding (tested: 0.5 µg/ml) |  |  |  | 
4 | B4 |  |  |  |  | binding result [1]: no binding (tested: 1 µM); binding result [2]: no binding (tested: 1 µM); binding result [3]: no binding (tested: 1 µM)
5 | B5 | no binding (tested: 0.5 µg/ml) |  |  |  | 
6 | B6 |  |  |  |  | binding result [5]: no binding (tested: 1 µM); binding result [6]: no binding (tested: 1 µM); binding result [7]: no binding (tested: 1 µM)
7 | B7 |  | no binding (tested: 1 µM) | no binding (tested: 1 µM) | no binding (tested: 1 µM) | 
8 | B8 |  | no binding (tested: 1 µM) | no binding (tested: 1 µM) | no binding (tested: 1 µM) | binding result [11]: no binding (tested: 0.5 µg/ml)
9 | B9 |  | no binding (tested: 1 µM) | no binding (tested: 1 µM) | no binding (tested: 1 µM) | 
